Experimental data: patent US8394929B2, “Nogo receptor-mediated blockade of axonal growth” (Yale University, priority 2000, dated 2013)

Experiments:
[1] = test system: 3T3 fibroblasts; test: 3T3 fibroblast spreading; type: cell-based, mouse
Protocol: (a) is a schematic diagram which summarizes features of the Nogo proteins utilized in this study. (b) is a photograph of NIH-3T3 fibroblasts cultured on surfaces coated with Amino-Nogo, GST-Nogo-66 or no protein and stained for filamentous actin (scale bar, 40 μm). (c) is a photograph of chick E12 dorsal root ganglions cultured on surfaces coated with Amino-Nogo, GST-Nogo-66 or no protein (substrate-bound) or with 100 nM Nogo protein (soluble) (scale bar, 40 μm). (d) is a photograph of a gel and an immunoblot where purified Amino-Nogo-Myc-His protein was subjected to SDS-PAGE and stained with Commassie Brilliant Blue (CBB) or immunoblotted with anti-Myc antibodies (Myc) (molecular weight markers of 200, 116, 97, 65 & 45 kDa are at left). (e) is a graph displaying experimental data where the percentage of 3T3 fibroblasts with an area greater than 1200 μm^2 (spread) was measured from experiments as in (b) on Nogo-coated surfaces (black) or with soluble 100 nM Nogo preparations (blue) (AM, Amino-Nogo; AM+Myc, Amino-Nogo preincubated with anti-Myc antibody; AM+Myc+Mo, AM+Myc preincubated with anti-mouse IgG antibody; Myc+Mo, anti-Myc antibody plus anti-murine IgG antibody). (f) is a graph displaying experimental data where the percentage of spread COS-7 cells was determined after culture on Nogo-coated surfaces or with soluble 100 nM Nogo preparations. (g) is a graph displaying experimental data where the effects of purified preparations of GST-Nogo-66 or Amino-Nogo on growth cone morphology was assessed in E12 dorsal root ganglion cultures at the indicated concentrations after thirty minutes. […] (h) is a graph displaying experimental data where the neurite outgrowth per cell in […] dorsal root ganglion cultures was quantitated from experiments as in (c) on Nogo-coated surfaces or with soluble 100 nM Nogo preparations. (i) is a graph displaying experimental data where the effects of Nogo preparations on neurite outgrowth in cerebellar granule neurons was measured.
Assays of Nogo-A function have included growth cone collapse, neurite outgrowth, and fibroblast spreading with substrate-bound and soluble protein preparations (Caroni & Schwab, (1988) J. Cell Biol. 106, 1281-1288; GrandPré et al., (2000) Nature 403, 439-444; Chen et al., (2000) Nature 403, 434-439; Prinjha et al., (2000) Nature 403, 483-484). […] Since NI250 preparations and full length Nogo-A are non-permissive for 3T3 spreading, it was necessary to consider whether different domains of Nogo might subserve this in vitro activity. To facilitate a comparison of different Nogo-A domains, the acidic amino terminal 1040 amino acid fragment (Amino-Nogo) was expressed as a Myc-his tagged protein in HEK293T cells (FIG. 1d). The Nogo protein is present in cytosolic fractions. […]

[2] = test system: COS-7 cells; test: COS-7 cell spreading; type: cell-based
Protocol: (§1) (a) is a schematic diagram which summarizes features of the Nogo proteins utilized in this study. (b) is a photograph of NIH-3T3 fibroblasts cultured on surfaces coated with Amino-Nogo, GST-Nogo-66 or no protein and stained for filamentous actin (scale bar, 40 μm). (c) is a photograph of chick E12 dorsal root ganglions cultured on surfaces coated with Amino-Nogo, GST-Nogo-66 or no protein (substrate-bound) or with 100 nM Nogo protein (soluble) (scale bar, 40 μm). […] (e) is a graph displaying experimental data where the percentage of 3T3 fibroblasts with an area greater than 1200 μm^2 (spread) was measured from experiments as in (b) on Nogo-coated surfaces (black) or with soluble 100 nM Nogo preparations (blue) (AM, Amino-Nogo; AM+Myc, Amino-Nogo preincubated with anti-Myc antibody; AM+Myc+Mo, AM+Myc preincubated with anti-mouse IgG antibody; Myc+Mo, anti-Myc antibody plus anti-murine IgG antibody). (f) is a graph displaying experimental data where the percentage of spread COS-7 cells was determined after culture on Nogo-coated surfaces or with soluble 100 nM Nogo preparations. (g) is a graph displaying experimental data where the effects of purified preparations of GST-Nogo-66 or Amino-Nogo on growth cone morphology was assessed in E12 dorsal root ganglion cultures at the indicated concentrations after thirty minutes. […]

[3] = test system: chick dorsal root ganglion neurons; test: Neurite outgrowth assay in chick DRG neurons; type: cell-based
Protocol: (§2) For all experiments involving cell culture, the following methods were employed. The culture of embryonic chick E10 and E12 dorsal root ganglion explants and dissociated neurons utilized methods described for E7 dorsal root ganglion cultures (Takahashi et al., (1998) Nature Neurosci. 1, 487-493; Takahashi et al., (1999) Cell 99, 59-69; Goshima et al., (1995) Nature 376, 509-514; Jin & Strittmatter, (1997) J. Neurosci. […]). NGF-differentiated PC12 cells were cultured as described (Strittmatter et al., (1994) J. Neurosci. 14, 2327-2338). Embryonic spinal cord explants (rat E10 or chick E5) were cultured for 7-14 days in the presence of PDGF-AA to induce differentiation of some cells into mature oligodendrocytes (Vartanian et al., (1999) Proc. Natl. Acad. Sci. USA 96, 731-735). The procedure for growth cone collapse assays is identical to that for analysis of Sema3A-induced growth cone collapse (Takahashi et al., (1998) Nature Neurosci. 1, 487-493; Takahashi et al., (1999) Cell 99, 59-69; Goshima et al., (1995) Nature 376, 509-514; Jin & Strittmatter, (1997) J. Neurosci. 17, 6256-6263). The method for analysis of total neurite outgrowth has also been described (Goshima et al., (1995) Nature 376, 509-514; Jin & Strittmatter, (1997) J. Neurosci. 17, 6256-6263; Strittmatter et al., (1994) J. Neurosci. 14, 2327-2338). In outgrowth assays, proteins and peptides were added one hour after plating to minimize any effect on the total number of adherent cells. To test the effect of substrate-bound GST or GST-Nogo, the protein solutions were dried on poly-L-lysine coated glass, washed and then coated with laminin. For E12 cultures, the neuronal identity of cells was verified by staining with anti-neurofilament antibodies (2H3, Develomental Studies Hybridoma Bank) and neurites were traced by observation of rhodamine-phalloidin staining of F-actin in processes.
For neurite outgrowth assays, plastic chamber slides were coated with 100 μg ml^−1 poly-L-lysine, washed, and dried. 3 μl drops of PBS containing GST-Nogo-66 were spotted and dried. Slides were then rinsed and coated with 10 μg ml fs24^−1 laminin before addition of dissociated E12 chick DRGs. AP-fusion proteins were added at the time of cell plating. Cultures were grown for 5-7 h after which neurite outgrowth was assessed.

[4] = test system: Mouse P4 cerebellar granule neurons; test: Cerebellar granule neuron axon outgrowth; type: cell-based
Protocol: as §1

[5] = test system: chick E12 dorsal root ganglion growth cones; test: Growth cone collapse assay in chick dorsal root ganglion explants; type: cell-based; settings: soluble form at 100 nM; chick E12 DRG
Protocol: as §2
The expression of recombinant Nogo in HEK293T cells allows a rigorous test of whether this protein has axon outgrowth inhibiting effects. Washed membrane fractions from vector- or hNogo-A-Myc-transfected HEK293T cells were added to chick E12 dorsal root ganglion explant cultures. Growth cone morphology was assessed after a thirty minute incubation at 37° C. by fixation and rhodamine-phalloidin staining.
Briefly, for growth cone collapse, DRG explants were plated on plastic chamber slides precoated with 100 μg ml^−1 poly-L-lysine and 10 μg ml^−1 laminin. Cultures were grown 14-16 h prior to treatment.

[6] = dimerized with anti-Myc antibody
[7] = substrate-bound / coated surfaces

B1: Amino-Nogo: acidic amino terminal 1040 amino acid fragment of Nogo-A expressed as a Myc-his tagged protein in HEK293T cells (protein, UniProt Q9NQC3 1-1040, looked up, fragment)
chain: MEDLDQSPLVSSSDSPPRPQPAFKYQFVREPEDEEEEEEEEEEDEDEDLEELEVLERKPAAGLSAAPVPTAPAAGAPLMDFGNDFVPPAPRGPLPAAPPVAPERQPSWDPSPVSSTVPAPSPLSAAAVSPSKLPEDDEPPARPPPPPPASVSPQAEPVWTPPAPAPAAPPSTPAAPKRRGSSGSVDETLFALPAASEPVIRSSAENMDLKEQPGNTISAGQEDFPSVLLETAASLPSLSPLSAASFKEHEYLGNLSTVLPTEGTLQENVSEASKEVSEKAKTLLIDRDLTEFSELEYSEMGSSFSVSPKAESAVIVANPREEIIVKNKDEEEKLVSNNILHNQQELPTALTKLVKEDEVVSSEKAKDSFNEKRVAVEAPMREEYADFKPFERVWEVKDSKEDSDMLAAGGKIESNLESKVDKKCFADSLEQTNHEKDSESSNDDTSFPSTPEGIKDRSGAYITCAPFNPAATESIATNIFPLLGDPTSENKTDEKKIEEKKAQIVTEKNTSTKTSNPFLVAAQDSETDYVTTDNLTKVTEEVVANMPEGLTPDLVQEACESELNEVTGTKIAYETKMDLVQTSEVMQESLYPAAQLCPSFEESEATPSPVLPDIVMEAPLNSAVPSAGASVIQPSSSPLEASSVNYESIKHEPENPPPYEEAMSVSLKKVSGIKEEIKEPENINAALQETEAPYISIACDLIKETKLSAEPAPDFSDYSEMAKVEQPVPDHSELVEDSSPDSEPVDLFSDDSIPDVPQKQDETVMLVKESLTETSFESMIEYENKEKLSALPPEGGKPYLESFKLSLDNTKDTLLPDEVSTLSKKEKIPLQMEELSTAVYSNDDLFISKEAQIRETETFSDSSPIEIIDEFPTLISSKTDSFSKLAREYTDLEVSHKSEIANAPDGAGSLPCTELPHDLSLKNIQPKVEEKISFSDDFSKNGSATSKVLLLPPDVSALATQAEIESIVKPKVLVKEAEKKLPSDTEKEDRSPSAIFSAELSKTSVVDLLYWRDIKKTGVVFGASLFLLLSLTVFSIVSVT
modifications: Myc-His tag
notes: acidic amino terminal 1040 amino acid fragment of Nogo-A expressed as a Myc-his tagged protein in HEK293T cells
With B1 the “3T3 spreading (in words)” value [1, 6] was “inhibits”, the “non-neuronal cell spreading (in words)” value ([1]; soluble, 100 nM) was “does not significantly modulate” and the “3T3 fibroblast spreading (in words)” value [1, 7] was “fail to support 3T3 fibroblast spreading”. The “COS-7 spreading (in words)” value [2, 6] was “inhibits”, the “non-neuronal cell spreading (in words)” value ([2]; soluble, 100 nM) was “does not significantly modulate” and the “dorsal root ganglion axon outgrowth (in words)” value ([3]; Amino-Nogo with anti-Myc antibody, further aggregated by anti-Mouse IgG antibody) was “significantly reduces”. The “neurite/axon outgrowth (in words)” value ([3]; soluble protein or peptide added to culture) was “does not significantly modulate”, the “neurite/axon outgrowth (in words)” value [3, 7] was “axonal outgrowth is reduced to low levels” and the “cerebellar axon outgrowth (in words)” value [4, 6] was “tends to reduce cerebellar axon outgrowth”. For the same molecule, the “cerebellar axon outgrowth (in words)” value ([4]; further aggregated by anti-Mouse IgG antibody) was “significantly reduces” and the “growth cone morphology (in words)” value [5] was “does not significantly modulate”.
